The record followed here is patent US8153424B2, “Method of in vitro differentiation of neural stem cells, motor neurons and dopamine neurons from primate embryonic stem cells” (Wisconsin Alumni Research Foundation, priority 2001, dated 2012).

The subject of the test is hESC-derived neuroectodermal cells. Kind of test: Midbrain regionalization and DA neuron differentiation, immunocytochemistry and cell counting. The class given is cell-based, human. The conditions noted are these: FGF8 100 ng/ml applied at day nine for six days, expanded in FGF8 four days, then SHH six days. As to the method:
Differentiation and enrichment of neuroectodermal cells. hESC colonies were detached from MEF layer by the treatment of the culture with 0.2 mg/ml of dispase (Roche Diagnostics) and grown as floating cell aggregates (embryoid body) for four days with a daily change of ESC medium. They were then grown in an adherent substrate in a neural medium consisting of DMEM/F12 (2:1), supplemented with N2 (Gibco), 0.1 mM non-essential amino acids, 2 μg/ml heparin with a medium change every other day. The ESC aggregates attached and formed individual colonies at around day six. […] The neural rosettes were isolated through differential enzymatic response (Zhang et al., supra, 2001). Growth factors were added during the course of differentiation to influence regionalization (see results).
DA neuron differentiation. The enriched neuroectodermal cells were dissociated by 0.025% trypsin and 0.27 mM EDTA in PBS at 37° C. for 10-15 minutes and plated onto 12-mm coverslips (pre-coated with 100 μg/ml polyornithine and 10 μg/ml laminin) at a density of 40,000-50,000 cells/coverslip. […]
Immunocytochemistry and cell quantification. […] Staining was visualized with a Nikon fluorescence microscope. […] The cells in ten visual fields were randomly selected and counted from each coverslip.

B1: FGF8: fibroblast growth factor 8 (protein, UniProt P55075 23-233, looked up)
Fibroblast growth factor 8: QEGPGRGPALGRELASLFRAGREPQGVSQQHVREQSLVTDQLSRRLIRTYQLYSRTSGKHVQVLANKRINAMAEDGDPFAKLIVETDTFGSRVRVRGAETGLYICMNKKGKLIAKSNGKGKDCVFTEIVLENNYTALQNAKYEGWYMAFTRKGRPRKGSKTRQHQREVHFMKRLPRGHHTTEQSLRFEFLNYPPFTRSLRGSQRTWAPEPR
Consider B1, for which the “En-1 expression in nestin-expressing neuroectodermal cells” value is on record as “En-1 expression was observed”.
